B1: C68.136 (antibody, V domains shown)
VH: EVQLLESGGGLVQPGGSLRLSCAASGFTFSIYAMSWVRQAPGKGLEWVSGISGSGGSTYYADSVKGRFTLSRDNSKNTLFLQMNSLRAEDTAVYYCAKGEGSVVVVSAGVWGKGTTVTVSS
VL: DIQLTQSPSSLSASVGDRITITCQASQDISKSLNWYQQKPGKAPKVLIYDASNLETGVPSRFSGSGSGTDFTFTISSLQPEDIATYYCQQYDNLRLTFGGGTKVEIK
B2: C68.180 (antibody, V domains shown)
VH: EVQLVESGGGLVKPGGSLRLSCAASGFTFIDYHMSWIRQAPGKGLEWVSYITTTSSYANYADSVKGRFTISRDNAKNSLFLQMNSLRADDTAVYYCARDRGYDLRFDYWGQGTLVTVSS
VL: DIQMTQSPSSLSASVGDRVTITCQASQGISNYLNWYQKKPGKAPKLLIYDASNLKTGVPSRFSGSGSGTDFTFTISSLQPEDIATYYCQQYDSLPLTFGGGTKVEIK
B3: C68.138 (antibody, V domains shown)
VH: EVQLVQSGAEVKKPGESLRISCKGSGYSSTNYWISWVRQMPGKGLEWMGRIDLSDSYTNYSPSFQGHVTISADKSISTAYLQWSSLKASDTAIYYCARLLTTVTTDWFDPWGQGTLVTVSS
VL: DIQMTQSPSSLSASVGDRVTITCRASQSISNYLNWYQQKPGKAPKLLIYTASSLQSGVPSRFSGSGSGTDFTLSISSLKPEDFATYFCQQSYNAPPYTFGQGTKLQIK
B4: C68.102 (antibody, V domains shown)
VH: QLQLQESGPGLLKPSETLSLTCTVSGGSISSSRYYWGWIRQPPGKGLEWIGSVYYSGTTYYNPSLKSRVTISVDASKNQFSLRLSSVSAADTAVYYCARRLGAIWDWGQGTRVTVSS
VL: DIQLTQSPSSLSASVGDRVTITCRASQGISNSLAWYQQKPGKAPKLLLYAASTLESGVPSRFSGSGSGTDYTLTISSLQPEDFAAYYCQQYYSTPTFGQGTKVEIK
B5: C68.233 (antibody, V domains shown)
VH: QVQLVQSGPEVKKPGTSVKVSCKASGFTFTTSAVQWVRQARGLRLEWIGWIVVGSGNTNYGQKFQERVTITRDMSTSTAYMELSSLRSEDTAVYYCAAPHCNRTNCHDGFDIWGQGTMVTVS
VL: EIVLTQSPGTLPLSPGERATLSCRASQSVRSSYLAWYQQKPGQAPRLLIYGASSRATGIPDRFSGSGSGTDFILTISRLEPEDFAVYSCQQYGSSPWTFGQGTKVEIK
B6: C68.285 (antibody, V domains shown)
VH: QVQLVQSGAEVKKPGASVKVSCKASGYTFSNYFMHWVRQAPGQGLEWMGIINPSGVSTSYAQKFQGRITMTRDTSTSTVYMELSSLRSEDTAVYYCAFEMGAAPFDYWGQGTLVTVSS
VL: DIQLTQSPSFLSASVGDRVTITCRASQGISSYLAWYQQKPGKAPKVLIYDASTLQSGVPSRFSGSGSGTEFTLTISSLQPEDFATYYCQQLNTYPQGLTFGGGTKVEIK
B7: C68.100 (antibody, V domains shown)
VH: EVQLVQSGAEVKKPGESLRISCKGSGYIFNSYWIIWVRQMPGKGLEWMGRIDPSDSYTNYSPSFQGHVTMSVDKSINTAYLQWSSLKASDTAMYYCARVRFGELSWDTFDYWGQGTLVTVSS
VL: DIQVTQSPSSLSASVGDRVTITCRASQSMSYYLNWYQQKPGKAPKLLISAASSLQSGVPSRFSGSGSGTDFTLTISSLQPEDFATYYCQQSYSTPYTFGQGTKLEIK
B8: C68.256 (antibody, V domains shown)
VH: QVQLQESGPGLVKPSETLSLTCSVSGGSISSSSSYWGWIRQPPGKGLEWIGNIDYSGSTYYNPSLKSRVTISVDTSKNQFSLKLSSVTAADTAVYFCARGADYGPYFDYWGQGALLTVSS
VL: QSALTQPASVSGSPGQSITISCTGTSSDVGSYNLVSWYQHHPGKAPKLMIYEVSKRPSGVSNRLSGSKSGNTASLTISGLQAEDEADYYCSSYAGSSTFVVFGGGTKLTVL
B9: C68.304 (antibody, V domains shown)
VH: EVQLVESGGGVVQPGRSLRLSCAASGFIFSNYDMHWVRQAPGKGLEWVAVIWYDGSNKYYADSVKGRFTISRDNSKNTLYLQMNSLRADDTAMYYCSRHDSGTYYYFDSWGQGTLVTVSS
VL: LTVVTQEPSFSVSPGGTVTLTCGLSSGSVSTSYYPSWYQQTPGQPPRTLIYTTITRSSGVPDRFSGSILGNKAALTITGAQGDDESDYYCVLYMGSGNWVFGGGTKLTVL
B10: C68.279 (antibody, V domains shown)
VH: EVQLVQSGAEVKKPGESLKISCKGSGYSFNYYWIGWVRQMPGKGLEWMGIIYPGDSDARYSPSFQGQVTISADKSISTAYLQWSSLKASDTAMYYCGRLVGYSHDLYFDYWGQGTLVTVSS
VL: not shown
B11: C68.123 (antibody, V domains shown)
VH: EVQLVESGGGLVQPGGSLRLSCSASGFTFSSYTLHWVRQAPGKGLEYVSSISSNGGSTYYADSVKGRFTISRDNSKNTLFLQMSSLRAEDTAIYYCVKGVWLHDFWSGYPSRWGQGTPVTVSS
VL: DIQLTQSPSTLSASVGDRVTITCRASQSISNWLAWYQQKPGKAPNLLIYDASSLESGVPSRFSGSGSGTEFTLTISSLQPDDFATYYCQQYNSYPWTFGQGSKVDIK
B12: C68.220 (antibody, V domains shown)
VH: QVQLLQSGAEVKKPGASVKVSCKASGYTFTIYAMHLVRQAPGQRLEWMGWINTGNGDTKYSQKFQGRVTITRDTSASTAYMELSSLRSEDTAVYYCAISGSRHFQVDYFDYWGQGTLVTVSS
VL: DIQMTQSPSTLSASVGDRVTITCRASQSISRWLAWYQQKPGKAPKLLIYDASSFESGVPSRFSGRGSGTEFTLTISSLQPDDFATYYCQQYKSYPWTFGQGTKVEIK
B13: C68.194 (antibody, V domains shown)
VH: QVQLVQSGAELKRPGASVKVSCKAPGHTFTIYAMHWVRQAPGQRPEWMGWINAGNGDTKYSQKFQGRVTITRDTSASTAYMELSSLRSEDTAVYYCATSGSLRFQVDYFDHWGQGTLVTVSS
VL: DIQLTQSPSTLSASVGDRVTITCRASQSISSWLAWYRQKPGKAPKLLIYDASNLESGVPSRFSGSGSGTEFTLTISSLQPDDFATYYCQQYNSYPWTFGQGTKVEIK
B14: C68.236 (antibody, V domains shown)
VH: QVQVVQSGAELKKPGASVKVSCKAPGHTFTIYAMHWVRQAPGQRLEWMGWINAGNGDTKYSQKFQGRVTITRDTSASTAYMELSSLRSEDTAVYYCASSGSRRFQVDYFDYWGQGTLVTVSS
VL: DIQLTQSPSTLSASVGDRVTITCRASQSIRSWLAWYQQKPGKAPKLLIYDASSLESGVPSRFSGSGSGTEFTLTISSLQPDDFATYYCQQYNSYPWTFGQGTKVEIK
B15: C68.263 (antibody, V domains shown)
VH: EVQLVESGGGVVQPGRSLRLSCAASGFTFSTYAMHWVRQAPGKGLEWVAVISFDGSNTYYADSVKGRFTISRDNSKNTLYLQMNSLRAEDTAVYYCAKDSYYSDRSDYYWRSYGYFGLWGQGTLVTVSS
VL: DIQLTQSPSTLSASVGDRVTITCRASQSISSWLAWYQQKPGKAPKLLIYDASSLESGVPSRFSGSGSGTEFTLTISSLQPDDLATYYCQQYRSYSGTFGQGTKVEIK
B16: C68.286 (antibody, V domains shown)
VH: QSTLKESGPALVKPTQTLTLTCTFSGFSLSTSGMCVSWIRQPPGKALEWLARIDWDDDKYYSTSLETRLTISKDTSKNQVVLTMTNMDPVDTATYYCARMTVAGPSLDYWGQGTLVTVSS
VL: not shown
B17: C68.170 (antibody, V domains shown)
VH: QVQLQESGPGLVKPSQTLSLTCTVSGGSISSGGYYWSWIRQHPKKDLEWIGYIYNSGSTYYNPSLKSRVTISIDTTKNQFSLKLSSVTAADTALYYCARSVGAAAQWGGEFDYWGQGTLVTVSS
VL: DIQLTQSPSSLSASVGDRVTITCQASQDISNYLNWYQQKPGKAPKLLIYDVFILQAGVPSRFSGSGSGTDFTFTISSLQPEDIATYYCQQYNHLITFGGGTKVEIK
B18: C68.225 (antibody, V domains shown)
VH: EVQLVQSGAEVKKPGESLRISCKGSGYSFTNYWISWVRQMPGKGLEWMGRIDPSDSYTDYSPSFQGHVTISTDKSISTAYLQWSSLKASDTAMYYCARPRGIAAVGTGYNWLDPWGQGTLVIVSS
VL: DIQMTQSPSTLSASVGDRVTITCRASQSINSWLAWYQQKPGKAPKLLIYDASSLESGVPSRFSGSGSGTEFTLTISSLQPADFATYYCQQYNALYTFGQGTKLEIK
B19: C68.281 (antibody, V domains shown)
VH: QVQLVQSGAEVRKPGASVKVSCKASGYNFTSYYMHWVRQAPGQGLEWMGIINPSDGSASYAQKFQGRVTMTRDSSTSTVYMELSSLRSDDTAVYFCARGGRILQWFPYFFDYWGQGTLVTVSS
VL: EIVLTQSPGTLSLSPGERATLSCRASQSVSIRYLAWYQQKPGQAPRLLIYGASSRATGIPDRFSGSGSGTDFTLTISRLEPEDFAVYYCQQYETFGQGTKVEIK
B20: C68.121 (antibody, V domains shown)
VH: EVQLVESGGGLVKPGGSLRLSCAASGFTFSDYYMTWIRQAPGKGLEWVSKITNSNSYTHYADSVKGRFTISRDNAKNSLFLHMNSLRAEDTAVYYCARAIWIGYPDDYYMDVWGKGTTVTVSS
VL: SYELTQPPSVSVSPGQTARITCSGDTLPNQYVYWYQQKPGQAPVLLIYKDTERPSGIPERVSGSTSGTTVTLTISGVQAEDEADYYCQSADSSGTSFGGGTKLTVL
B21: C68.175 (antibody, V domains shown)
VH: EVQLLESGGGLVQPGGSLRLSCAASGFTFSSYAMSWVRQAPGKGLEWVSGISGSGGSTYYADSVKGRFTISRDNSKNTLHLQMNSLRAEDTAVYYCAKGSRWNPDYFDYWGQGTLVTVSS
VL: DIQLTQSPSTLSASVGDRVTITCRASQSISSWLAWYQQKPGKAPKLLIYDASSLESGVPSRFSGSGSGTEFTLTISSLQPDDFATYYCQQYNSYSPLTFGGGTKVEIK
B22: C68.83 (antibody, V domains shown)
VH: EVQLVESGGGVVQPGRSLRLSCAASGFIFSSYGMHWVRQAPGKGLEWVAVIWYDGSNKYYADSVKGRFTISRDNSKNTLYLQMNSLRAEDTAVYYCARDDPEVGCSGGSCYYYYDMDVWGQGTTVTVSS
VL: SYELTQPPSVSVSPGQTARITCSGDALPKQHAHWYQQKPGQAPVLVIYKDIERPSGIPERFSGSSSGTTVTLTISGVQAEDEADYYCQSADSSVTYVVFGGGTKLTVL

Each binder was assayed against T1, SARS-CoV-2 RBD subunit (recombinant) (SARS-CoV-2 Wuhan-Hu-1, UniProt P0DTC2) (assay: not given). Conditions: not given.
B1: binds. B2: binds. B3: binds. B4: binds. B5: binds. B6: binds. B7: binds. B8: binds. B9: binds. B10: binds. B11: binds. B12: binds. B13: binds. B14: binds. B15: binds. B16: binds. B17: binds. B18: binds. B19: binds.

The binders below were run against T1, SARS-CoV-2 RBD subunit (recombinant) (assay: ELISA). Conditions: both partners purified.
B20: binds. B21: binds. B22: binds.

Reference: article PMC11542851 (PLOS Pathogens, 2024)
